Like-named read-outs stand apart in the source and are kept apart here.
T1: BMP-9 (Homo sapiens, UniProt Q9UK05)
T1 sequence (Q9UK05 320-429): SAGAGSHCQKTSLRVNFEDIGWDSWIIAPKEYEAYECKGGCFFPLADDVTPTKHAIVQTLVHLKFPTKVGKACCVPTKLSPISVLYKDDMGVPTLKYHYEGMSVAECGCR

T2: activin A (Homo sapiens, UniProt P08476)
T2 sequence (P08476 311-426): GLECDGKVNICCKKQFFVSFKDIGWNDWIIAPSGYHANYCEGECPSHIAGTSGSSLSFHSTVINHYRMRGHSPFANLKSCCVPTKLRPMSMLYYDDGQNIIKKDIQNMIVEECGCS


How the values were obtained:
TGFβ superfamily ligands = experiment: Neutralization profile across TGFβ superfamily ligands (HEK293 and HepG2 reporter assays, summary); type: cell-based, human
Method: (§1) Potency testing by neutralization on cell-based assays. Characterization of the activin A, activin B, GDF-8, and GDF-11 inhibition potency (IC50) of the fusion proteins was performed using a cell-based reporter assay. TGFβ-reporter HEK293 cells were obtained from InvivoGen (San Diego, CA, cat. no. hkb-tgfb) and were maintained following the manufacturer's instructions. Briefly, cells were grown in high-glucose DMEM, containing 10% heat-inactivated FBS, 30 μg/mL blasticidin, 250 μg/mL hygromycin B, and 100 μg/mL zeocin (hereafter, “growth medium”). Once the cells reached 70-80% confluence, they were detached in growth medium by gently tapping on the flask. For all assays, cells were seeded in 96-well plates at a density of 20,000 cells per well in growth medium. Cells were left to attach for 10 minutes at room temperature (RT) prior to being transferred to a 37° C. incubator (5% CO2) overnight. The next day, treatments were prepared by combining the appropriate concentration of agent with activin A, activin B, GDF-8, or GDF-11 for 30 min at RT (shaking at 150 rpm). Treatments were conducted in high-glucose DMEM (serum-free and with no selection agents), and the final concentration of cytokine (ligand) was 0.3 nM. Growth medium was removed from the culture plates, and cells were treated with the appropriate mixes of fusion protein and cytokine. Treatment duration was for 18-22 h at 37° C. (5% CO2). All treatments were performed in technical duplicates and at least one or two independent experiments were conducted for each cytokine. At the end of the treatment period, supernatants were transferred to a new plate, and centrifuged at 300 RPM for 3 min. Forty microlitres of supernatant from each condition was transferred to a new plate, into which 180 μL of Quanti-Blue reagent (InvivoGen, cat. no. rep-qbs) was added. Quanti-Blue reagent was prepared following the manufacturer's instructions. Samples were incubated for 45 min at 37° C. At the end of the incubation, absorbance was read at 650 nm. The data were plotted in GraphPad Prism, which was used to calculate IC50 values as a non-linear regression.
Characterization of the BMP-9 and BMP-10 inhibition potency (IC50) of the fusion proteins was performed using a second cell-based reporter assay. Human hepatic HepG2 cells were transfected with a SEAP-encoding plasmid, in which SEAP expression is under the control of the murine Id1 promoter. A stable pool was generated from this transfection. Cells were grown in EMEM, containing 10% heat-inactivated FBS and 200 μg/mL zeocin (hereafter, “HepG2 growth medium”). […] For all assays, cells were seeded in 96-well plates at a confluence of 100,000 cells per well in HepG2 growth medium. Cells were left to attach for 10 minutes at RT prior to being transferred to a 37° C. incubator (5% CO2) overnight. The next day, treatments were prepared in EMEM (2.5% heat-inactivated FBS and with no selection agents) by combining the appropriate concentration of agent with BMP-9 or BMP-10 for 30 min at RT (shaking at 150 rpm). Treatments were conducted in EMEM (2.5% heat-inactivated FBS and with no selection agents), and the final concentration of BMP-9 and BMP-10 was 2 ng/mL and 40 ng/mL, respectively. HepG2 growth medium was removed from the culture plates, and cells were treated with the appropriate mixes of fusion protein and cytokine. Treatment duration was for 20-24 h at 37° C. (5% CO2). […]

BMP-9 = target: T1, BMP-9; experiment: Small-scale BMP-9 ELISA with CHO supernatants; type: binding; details: BMP-9 10 ng/mL
Method: Small-scale testing of ActRIIB-ECD fusion proteins. Additional investigation of a series of exemplary agents was performed using proteins expressed in CHO cells. Briefly, DNA encoding the ActRIIB-ECD-Fc fusion constructs was transfected in cells seeded in 12-well plates in a final volume of 1 ml. After 7 days, the supernatant was harvested, clarified, and the amount of expressed protein in each well was quantified using standard methods. The potency of each agent for inhibition of activin A, BMP-9 and BMP-10 was determined in three separate assays.
The next day, the plate was washed three times. […] Expressed proteins in the supernatants were diluted 1 in 2 in assay diluent (0.5% BSA, 0.05% tween-20 in PBS) and 100 μl was added to the 96-well plate in technical duplicates. After a 1.5-hour incubation at RT, the plate was washed three times. […] In this assay, a loss of signal indicates less binding of the exemplary agent to BMP-9. Results are expressed as a % of the signal obtained with wild-type ActRIIB-Fc (P75).

[1] = SEC-HPLC monomer and HMW content of purified fusion proteins; type: physicochemical; details: after Protein A purification
Source text: Given that protein aggregation can be indicative of reduced conformational stability and decreased activity, Size-Exclusion Chromatography-High Performance Liquid Chromatography (SEC-HPLC) was used to determine the purity of each ActRIIB-ECD construct. This method measured the percentage of intact monomeric species as well as the presence of aggregates and/or degradation products.
All proteins expressed efficiently in CHO and/or 293 cells and purification efficiency of each using Protein A affinity chromatography was similar.

activin A = target: T2, activin A; experiment: TGFβ-reporter HEK293 cell-based assay: activin A neutralization; details: for IC50: read-out: CBA Potency Activin A; for CBA potency Activin A, potency fold-change: relative to reference (P1372 = 1)
Method: as §1

Molecule | improved potency on activin A, GDF-8, and GDF-11 relative to P75 (TGFβ superfamily ligands) | BMP-9 binding, ELISA signal relative to P75 (BMP-9) | high molecular weight (HMW) content (SEC-HPLC) [1] | monomer content (SEC-HPLC) [1] | CBA potency Activin A, fold-change vs reference (activin A; D 0) | IC50 (activin A; D 0) | IC50 (activin A; D 7, 2-8° C.) | IC50 (activin A; D 7, RT) | CBA potency Activin A, fold-change vs reference (activin A; D 7 after storage at 2-8° C.) | CBA potency Activin A, fold-change vs reference (activin A; D 7 after storage at room temperature) | IC50 (activin A; D 14, 2-8° C.) | IC50 (activin A; D 14, RT) | IC50 (activin A; D 28, 2-8° C.) | IC50 (activin A; D 28, RT) | CBA potency Activin A, potency fold-change (activin A; D 28, storage at 2-8° C.) | CBA potency Activin A, potency fold-change (activin A; D 28, storage at room temperature) | IC50 (activin A; D 56, RT) | impact of modifications in the Fc sequence on activin A, activin B, GDF-8, and GDF-11 potency (TGFβ superfamily ligands; all ligands) | impact of modifications in the Fc sequence on BMP-9 and BMP-10 potency (TGFβ superfamily ligands; both ligands)
P1229: hActRIIB L33W, 14 aa linker, IgG1-DL Fc; SEQ ID 211 | ~ 4 fold | very low BMP-9 binding | 3% | 97% |  |  |  |  |  |  |  |  |  |  |  |  |  |  | 
P1372: hActRIIB L33W, 14 aa linker, IgG1 YTE-DL Fc; SEQ ID 231 (protein) ETRECIYYNANWELERTNQSGLERCEGEQDKRWHCYASWRNSSGTIELVKKGCWLDDFNCYDRQECVATEENPQVYFCCCEGNFCNERFTHLPEAGGPEVTYEPPPTGGGGSGGGGSGGGGTHTCPPCPAPELLGGPSVFLFPPKPKDTLYITREPEVTCVVVDVSHEDPEVKFNWYVDGVEVHNAKTKPREEQYNSTYRVVSVLTVLHQDWLNGKEYKCKVSNKALPAPIEKTISKAKGQPREPQVYTLPPSRDELTKNQVSLTCLVKGFYPSDIAVEWESNGQPENNYKTTPPVLDSDGSFFLYSKLTVDKSRWQQGNVFSCSVMHEALHNHYTQKSLSLSPG |  | near-undetectable binding to BMP-9 | 1% | 99% | 1 (ref) | 0.59 nM | 0.81 nM | 0.78 nM | 1 (ref) | 1 (ref) | 0.63 nM | 0.74 nM | 0.99 nM | 0.9 nM | 1 (ref) fold | 1 (ref) fold | 1.1 nM | comparable to P1229 | comparable to P1229

Reference: patent publication US20260193317A1, “COMBINATION THERAPY WITH ACTRIIB RECEPTOR VARIANTS AND GLP-1 AGONISTS” (35PHARMA Inc., priority 2023, published 2026)
